T1: carcinoembryonic antigen (CEA) (human, UniProt P06731 35-685)
T1 construct: whole, on cells; also called CEACAM5; Carcinoembryonic antigen-related cell adhesion molecule 5
T1 sequence (looked up): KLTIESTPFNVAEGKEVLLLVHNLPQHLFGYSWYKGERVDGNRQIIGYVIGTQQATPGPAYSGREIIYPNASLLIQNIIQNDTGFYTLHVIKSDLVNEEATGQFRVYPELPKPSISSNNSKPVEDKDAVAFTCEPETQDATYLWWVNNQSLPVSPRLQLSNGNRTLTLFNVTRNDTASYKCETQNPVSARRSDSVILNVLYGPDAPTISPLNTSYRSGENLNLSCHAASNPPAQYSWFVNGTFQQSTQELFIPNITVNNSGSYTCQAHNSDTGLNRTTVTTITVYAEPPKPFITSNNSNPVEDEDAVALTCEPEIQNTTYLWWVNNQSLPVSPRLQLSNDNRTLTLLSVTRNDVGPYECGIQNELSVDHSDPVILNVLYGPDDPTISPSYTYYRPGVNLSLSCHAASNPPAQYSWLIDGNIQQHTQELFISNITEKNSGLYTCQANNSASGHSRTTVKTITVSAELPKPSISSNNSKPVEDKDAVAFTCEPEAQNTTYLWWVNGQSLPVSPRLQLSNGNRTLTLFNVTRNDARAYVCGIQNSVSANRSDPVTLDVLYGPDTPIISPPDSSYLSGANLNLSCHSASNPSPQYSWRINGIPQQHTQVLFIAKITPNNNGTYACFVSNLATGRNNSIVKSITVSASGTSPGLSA


Target: T1, carcinoembryonic antigen (CEA)
Assay: FACS on MKN-45 cells, detection with anti-huIgG(H+L)-Alexa488
Description: MKN-45 cells were detached from the culture bottle using Trypsin and were counted using a Casy cell counter. After pelleting at 4° C., 300 g the cells were resuspended in FACS Buffer (2.5% FCS in PBS), adjusted to 2.0E+06 cells/mL dispensed to 96-well PP V-bottom-Platte (25 μL/well=5.0E+04Zellen/well).
The CEA specific SPLIT antibodies (P1AF0712 or P1AF0713 respectively) were adjusted to 40 μg/mL in FACS buffer, resulting in a final concentration of 10 μg/mL. Both antibodies were added to the cells either separated followed by buffer or combined and incubated at 4° C. for 1 h. The cells were then washed twice in FACS buffer. After washing, the cells were resuspended in 50 μL FACS-buffer containing secondary antibody (<huIgG(H+L)>-Alexa488, c=10 μg/mL) and incubated 1h at 4° C. The cells were then washed twice in FACS buffer and resuspended in 70 μl/well FACS buffer for measurement using a FACS Canto (BD, Pharmingen).

| EC50 | Binder |
| --- | --- |
| 2.7 µg/mL | P1AF0712 (CEA-split-DOTA-VL, CH1A1A) (antibody, human IgG1, kappa, L234A L235A, also called CEA specific SPLIT antibody; P6_A) heavy 1: not shown heavy 2: QVQLVQSGAEVKKPGASVKVSCKASGYTFTEFGMNWVRQAPGQGLEWMGWINTKTGEATYVEEFKGRVTFTTDTSTSTAYMELRSLRSDDTAVYYCARWDFAYYVEAMDYWGQGTTVTVSSASTKGPSVFPLAPSSKSTSGGTAALGCLVKDYFPEPVTVSWNSGALTSGVHTFPAVLQSSGLYSLSSVVTVPSSSLGTQTYICNVNHKPSNTKVDKKVEPKSCDKTHTCPPCPAPEAAGGPSVFLFPPKPKDTLMISRTPEVTCVVVDVSHEDPEVKFNWYVDGVEVHNAKTKPREEQYNSTYRVVSVLTVLHQDWLNGKEYKCKVSNKALGAPIEKTISKAKGQPREPQVCTLPPSRDELTKNQVSLSCAVKGFYPSDIAVEWESNGQPENNYKTTPPVLDSDGSFFLVSKLTVDKSRWQQGNVFSCSVMHEALHNHYTQKSLSLSPGGGGGSGGGGSGGGGSGGGGSQAVVIQESALTTPPGETVTLTCGSSTGAVTASNYANWVQEKPDHLFTGLIGGHNNRPPGVPARFSGSLIGDKAALTIAGTQTEDEAIYFCALWYSDHWVIGGGTKLTVL light: DIQMTQSPSSLSASVGDRVTITCKASAAVGTYVAWYQQKPGKAPKLLIYSASYRKRGVPSRFSGSGSGTDFTLTISSLQPEDFATYYCHQYYTYPLFTFGQGTKLEIKRTVAAPSVFIFPPSDEQLKSGTASVVCLLNNFYPREAKVQWKVDNALQSGNSQESVTEQDSKDSTYSLSSTLTLSKADYEKHKVYACEVTHQGLSSPVTKSFNRGEC |
| 2.3 µg/mL | P1AF0713 (CEA-split-DOTA-VH-AST, CH1A1A) (antibody, human IgG1, kappa, L234A L235A, also called CEA specific SPLIT antibody; P6_B) heavy 1: QVQLVQSGAEVKKPGASVKVSCKASGYTFTEFGMNWVRQAPGQGLEWMGWINTKTGEATYVEEFKGRVTFTTDTSTSTAYMELRSLRSDDTAVYYCARWDFAYYVEAMDYWGQGTTVTVSSASTKGPSVFPLAPSSKSTSGGTAALGCLVKDYFPEPVTVSWNSGALTSGVHTFPAVLQSSGLYSLSSVVTVPSSSLGTQTYICNVNHKPSNTKVDKKVEPKSCDKTHTCPPCPAPEAAGGPSVFLFPPKPKDTLMISRTPEVTCVVVDVSHEDPEVKFNWYVDGVEVHNAKTKPREEQYNSTYRVVSVLTVLHQDWLNGKEYKCKVSNKALGAPIEKTISKAKGQPREPQVCTLPPSRDELTKNQVSLSCAVKGFYPSDIAVEWESNGQPENNYKTTPPVLDSDGSFFLVSKLTVDKSRWQQGNVFSCSVMHEALHNHYTQKSLSLSPG heavy 2: not shown light: DIQMTQSPSSLSASVGDRVTITCKASAAVGTYVAWYQQKPGKAPKLLIYSASYRKRGVPSRFSGSGSGTDFTLTISSLQPEDFATYYCHQYYTYPLFTFGQGTKLEIKRTVAAPSVFIFPPSDEQLKSGTASVVCLLNNFYPREAKVQWKVDNALQSGNSQESVTEQDSKDSTYSLSSTLTLSKADYEKHKVYACEVTHQGLSSPVTKSFNRGEC |

Source: patent US20240173442A1 (Hoffmann-La Roche, published 2024)
